Test results: patent US10428140B2, “Anti-EphA4 antibody” (EISAI R&D MANAGEMENT CO., LTD., priority 2015, dated 2019)
Substitutions are numbered along the chain they refer to.

T1: human EphA3 (Homo sapiens, UniProt P29320)
T1 construct: a protein of the extracellular region of each human Eph receptor fused with the SEAP protein and the His tag; made in house; host or cells: Expi293F cells (culture supernatant)
T1 sequence (P29320 21-541 limits assumed): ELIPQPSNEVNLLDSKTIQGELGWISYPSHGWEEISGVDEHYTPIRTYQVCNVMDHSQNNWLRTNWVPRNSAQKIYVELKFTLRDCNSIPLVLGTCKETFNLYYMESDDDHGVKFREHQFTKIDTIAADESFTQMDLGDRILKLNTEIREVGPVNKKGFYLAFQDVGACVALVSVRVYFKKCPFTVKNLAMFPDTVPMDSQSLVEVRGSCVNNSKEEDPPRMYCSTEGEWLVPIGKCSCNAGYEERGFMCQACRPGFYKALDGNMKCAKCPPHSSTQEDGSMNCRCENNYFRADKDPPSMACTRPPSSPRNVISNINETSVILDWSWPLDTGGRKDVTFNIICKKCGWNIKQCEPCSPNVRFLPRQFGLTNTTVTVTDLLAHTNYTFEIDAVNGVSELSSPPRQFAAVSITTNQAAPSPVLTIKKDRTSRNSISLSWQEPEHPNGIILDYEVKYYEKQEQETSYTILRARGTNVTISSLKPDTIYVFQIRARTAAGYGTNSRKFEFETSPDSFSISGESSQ

T2: human EphB4 (Homo sapiens, UniProt P54760)
T2 construct: a protein of the extracellular region of each human Eph receptor fused with the SEAP protein and the His tag; made in house; host or cells: Expi293F cells
T2 sequence (P54760 16-539 limits assumed): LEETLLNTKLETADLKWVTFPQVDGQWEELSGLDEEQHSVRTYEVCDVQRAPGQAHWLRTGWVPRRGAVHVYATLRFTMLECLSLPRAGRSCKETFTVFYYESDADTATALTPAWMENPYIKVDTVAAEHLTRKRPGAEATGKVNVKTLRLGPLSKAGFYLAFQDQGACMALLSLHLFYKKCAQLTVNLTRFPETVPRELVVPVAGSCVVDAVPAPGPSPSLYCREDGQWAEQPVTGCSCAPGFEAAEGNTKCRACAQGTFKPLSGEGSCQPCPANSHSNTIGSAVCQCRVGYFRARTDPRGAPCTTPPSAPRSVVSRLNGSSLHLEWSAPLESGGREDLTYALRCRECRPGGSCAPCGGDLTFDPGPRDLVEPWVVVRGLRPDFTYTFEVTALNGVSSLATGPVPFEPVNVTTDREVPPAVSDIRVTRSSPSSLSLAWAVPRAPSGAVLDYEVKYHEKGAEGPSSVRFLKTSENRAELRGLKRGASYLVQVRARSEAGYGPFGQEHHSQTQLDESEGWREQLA

T3: human EphB6 (Homo sapiens, UniProt O15197)
T3 construct: a protein of the extracellular region of each human Eph receptor fused with the SEAP protein and the His tag; made in house; host or cells: Expi293F cells
T3 sequence (O15197 32-594 limits assumed): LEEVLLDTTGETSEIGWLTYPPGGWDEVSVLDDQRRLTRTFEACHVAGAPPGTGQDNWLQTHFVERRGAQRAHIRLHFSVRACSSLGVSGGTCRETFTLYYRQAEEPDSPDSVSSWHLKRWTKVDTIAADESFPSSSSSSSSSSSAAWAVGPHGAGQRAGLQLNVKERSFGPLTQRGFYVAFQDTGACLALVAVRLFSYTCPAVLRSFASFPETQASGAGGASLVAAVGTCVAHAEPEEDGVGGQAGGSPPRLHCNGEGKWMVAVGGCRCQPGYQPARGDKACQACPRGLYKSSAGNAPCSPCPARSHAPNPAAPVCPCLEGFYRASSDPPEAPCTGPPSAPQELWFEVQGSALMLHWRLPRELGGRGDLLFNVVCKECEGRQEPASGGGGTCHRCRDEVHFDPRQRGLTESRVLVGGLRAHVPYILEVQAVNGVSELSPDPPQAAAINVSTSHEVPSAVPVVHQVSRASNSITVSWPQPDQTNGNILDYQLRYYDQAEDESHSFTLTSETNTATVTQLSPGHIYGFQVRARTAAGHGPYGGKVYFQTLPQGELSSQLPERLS

B1: 69 (antibody, V domains shown)
VH: QIQLVQSGSELKKPGASVKVSCKASGYTFTDYSMHWVRQAPGQGLKWMGWINTETGEPTYADDFKGRFVFSLDTSVSTAYLQISSLKAEDTAVYYCARIPLYYYGSRYWYFDVWGQGTTVTVSS
VL: DIQMTQSPSSLSASVGDRVTITCRASENIYRNLAWYQQKPGKAPKLLVYAATNLADGVPSRFSGSGSGTDYTLTISSLQPEDFATYYCQHFWGTPWTFGQGTKVEIK
modifications: synthetic humanized antibody heavy chain variable region sequence; synthetic humanized antibody light chain variable region sequence
B2: 81 (antibody, V domains shown)
VL: B1 VL with V48L, P80S
VH: B1 VH with I2V, K46E, D62Q, D63G, K65T
modifications: constant regions without entry; synthetic humanized antibody light chain variable region sequence; synthetic humanized antibody heavy chain variable region sequence
B3: 82 (antibody, V domains shown)
VL: B1 VL with V48L, P80S
VH: B1 VH with I2V, D62Q, D63G, K65T
modifications: constant regions without entry; synthetic humanized antibody light chain variable region sequence; synthetic humanized antibody heavy chain variable region sequence
B4: 83 (antibody, V domains shown)
VL: B1 VL with V48L, P80S
VH: B1 VH with D62Q, D63G, K65T
modifications: constant regions without entry; synthetic humanized antibody light chain variable region sequence; synthetic humanized antibody heavy chain variable region sequence
B5: 84 (antibody, V domains shown)
VL: B1 VL with V48L, P80S
VH: B1 VH with I2V, K46E
modifications: constant regions without entry; synthetic humanized antibody light chain variable region sequence; synthetic humanized antibody heavy chain variable region sequence
B6: 85 (antibody, V domains shown)
VL: B1 VL with V48L, P80S
VH: B1 VH with I2V
modifications: constant regions without entry; synthetic humanized antibody light chain variable region sequence; synthetic humanized antibody heavy chain variable region sequence
B7: 86 (antibody, V domains shown)
VL: B1 VL with V48L, P80S
VH: B1 VH
modifications: constant regions without entry; synthetic humanized antibody light chain variable region sequence; synthetic humanized antibody heavy chain variable region sequence
B8: 87 (antibody, V domains shown)
VL: B1 VL with K45Q, V48L
VH: B1 VH with I2V, K46E, D62Q, D63G, K65T
modifications: constant regions without entry; synthetic humanized antibody light chain variable region sequence; synthetic humanized antibody heavy chain variable region sequence

These molecules were tested against T1, human EphA3 (assay: Selectivity ELISA of humanized antibodies for human Eph receptor). Conditions: coated protein 1 nM.
Assay type: binding
From the text: (§1) According to the method described in Example 7, a DNA sequence encoding the signal sequence and the extracellular region of each human Eph receptor (EphA1, EphA2, EphA3, EphA4, EphA5, EphA6, EphA7, EphA8, EphA10, EphB1, EphB2, EphB3, EphB4, and EphB6) was amplified by RT-PCR using tissue-derived total RNA and cloned into a pENTR1A vector (Invitrogen/Life Technologies) having a DNA sequence encoding SEAP protein and histidine tag. Next, the DNA sequence encoding the signal sequence and the extracellular region of each human Eph receptor, SEAP protein, and histidine tag was transferred to a pcDNA3.1_rfcB vector through LR reaction using Gateway System (Invitrogen/Life Technologies) to construct a vector for the expression of a protein of the extracellular region of each human Eph receptor fused with the SEAP protein and the His tag (referred to as “Eph receptor extracellular region-SEAP-His protein”) (this vector is referred to as “Eph receptor extracellular region-SEAP-His protein expression vector”).
(§2) Next, each human Eph receptor extracellular region-SEAP-His protein expression vector was transferred to Expi293F cells (Gibco/Thermo Fisher Scientific) using Expi293 expression system (Gibco/Thermo Fisher Scientific). After incubation (5% CO2, 37° C.) for 5 days, the culture supernatant was recovered and centrifuged at 1500 rpm at room temperature for 5 minutes. The centrifugation supernatant was filtered through a 0.45-μm filter (Merck Millipore).
(§3) Each anti-EphA4 monoclonal humanized antibody obtained in Example 16 was evaluated for its binding activity against each human Eph receptor according to the following steps.
(§4) Each well of a 96-well plate (Nunc) was coated with a rabbit anti-6-His antibody (Bethyl Laboratories). Each well was […] After washing with 0.05% Tween 20/PBS (Nacalai Tesque) three times, the SEAP-His protein of human EphA1, EphA2, EphA3, EphA4, EphA5, EphA6, EphA7, EphA8, EphA10, EphB1, EphB2, EphB3, EphB4, or EphB6 was added (final concentration: 1 nM) to each well and incubated at room temperature for 1 hour. After washing three times, the humanized antibody was added to each well and incubated at room temperature for 1 hour. After washing three times, a horseradish peroxidase-labeled donkey […] IgG antibody (Jackson ImmunoResearch Laboratories) was added thereto and incubated at room temperature for 1 hour. After washing three times, TMB Microwell Peroxidase Substrate System (Kirkegaard & Perry Laboratories (KPL)) was added to each well. After confirmation of moderate color development, an equal amount of a reaction stopping solution (1N H2SO4, Wako Pure Chemical Industries) was added to each well. The absorbance at 450 nm was read using a microplate reader (Thermo Fisher Scientific).

| Molecule | hEphA3-SEAP-: absorbance at 450 nm, percentage with respect to hEphA4-SEAP-His as 100% [%] |
| --- | --- |
| B1 | 5.4 |
| B2 | 5.0 |
| B3 | 5.4 |
| B4 | 5.7 |
| B5 | 4.9 |
| B6 | 5.1 |
| B7 | 5.8 |
| B8 | 5.5 |

What follows are molecules tested against T2, human EphB4 in the same assay as above. Conditions: coated protein 1 nM.
Assay type: binding
From the text: as §1, §2, §3, §4

| Molecule | hEphB4-SEAP-: absorbance at 450 nm, percentage with respect to hEphA4-SEAP-His as 100% [%] |
| --- | --- |
| B1 | 5.5 |
| B2 | 5.0 |
| B3 | 5.7 |
| B4 | 5.7 |
| B5 | 5.4 |
| B6 | 5.2 |
| B7 | 5.8 |
| B8 | 5.5 |

Each molecule was assayed against T3, human EphB6 in the same assay as above. Conditions: coated protein 1 nM.
Assay type: binding
From the text: as §1, §2, §3, §4

| Molecule | hEphB6-SEAP-: absorbance at 450 nm, percentage with respect to hEphA4-SEAP-His as 100% [%] |
| --- | --- |
| B1 | 5.6 |
| B2 | 5.0 |
| B3 | 5.5 |
| B4 | 5.8 |
| B5 | 4.9 |
| B6 | 5.2 |
| B7 | 5.7 |
| B8 | 5.3 |
